Measured values: patent US20260258115A1 (MAPP BIOPHARMACEUTICAL, published 2026)

What was measured:
[1] = molecular target: T1, RSV postfusion F (postF), subtype B (respiratory syncytial virus subtype B); assay: BLI, IgG
T1 construct: also called Postfusion subtype B

[2] = molecular target: T2, RSV postfusion F (postF), subtype A (respiratory syncytial virus subtype A, UniProt P03420 26-513); assay: BLI
T2 construct: also called Postfusion subtype A; F deltaFP

[3] = molecular target: RSV F on RSV subtype A virus (RSV-A2) (Respiratory Syncytial Virus, subtype A, …, UniProt P03420 26-574); assay: cell-based or functional assay
[4] = molecular target: T3, RSV prefusion F (preF), subtype B (respiratory syncytial virus subtype B); assay: BLI, IgG
T3 construct: also called Prefusion subtype B

[5] = molecular target: RSV prefusion F (preF), subtype A (respiratory syncytial virus, subtype A, UniProt P03420 26-513); assay: BLI, IgG
[6] = molecular target: RSV prefusion F (preF), subtype B (respiratory syncytial virus, subtype B); assay: BLI, IgG
[7] = molecular target: T4, RSV postfusion F (postF), subtype A (respiratory syncytial virus, subtype A, UniProt P03420 26-513); assay: BLI, IgG
T4 construct: also called F ΔFP; Postfusion subtype A

[8] = molecular target: T5, RSV postfusion F (postF), subtype B (respiratory syncytial virus, subtype B); assay: BLI, IgG
T5 construct: also called F ΔFP; Postfusion subtype B

B1: ADI-19503 (antibody, V domains shown)
VH: QVQLVQSGAEVKKPGASVKVSCKASGYTFTSYYMHWVRQAPGQGLEWMGIINPSGGSTSYAQKFQGRVTMTRDTSTSTVYMELSSLRSEDTAVYYCARDSLVNCSGGSCPGGPDYWGQGTLVTVSS
VL: SYVLTQPPSVSVSPGQTARITCSGDALPKKYAYWYQQKSGQAPVLVIYEDSKRPSGIPERFSGSSSGTMATLTISGAQVEDEADYYCYSTDSSGNHRVFGGGTKLTVL
notes: full-length IgG
Kd [1]: 11.6 nM

B2: ADI-24793 (antibody, V domains shown)
VH: QVQLVQSGAEVKKPGESLKISCKGSGYSFTSYWIGWVRQMPGKGLEWMGIIYPGDSDTRYSPSFQGQVTISADKSISTAYLQWSSLKASDTAMFYCVMGSYSYYFDYWGQGTLVTVSS
VL: NFMLTQPHSVSESPGKTVTISCTRSSGSIASNYVQWYQQRPGSAPTTVIYEDNLRPSGVPDRFSGSIDSSSNSASLTISGLKTEDEADYYCQSYDSSNQVFGGGTKLTVL
notes: full-length IgG
binding result [2]: no binding | Kd [1]: 26.8 nM

B3: ADI-19497 (antibody, V domains shown)
VH: QVQLVQSGAEVKKPGASVKVSCKASGYTFTSYYMHWVRQAPGQGLEWMGIINPSGGSTSYAQKFQGRVTMTRDTSTSTVYMELSSLRSEDTAVYYCSRGYSYGYDYWGQGTLVTVSS
VL: NFMLTQPHSVSESPGKTVTISCTRSSGSIASNYVQWYQQRPGSSPTTVIYEDNQRPSGVPDRFSGSIDSSSNSASLTISGLKTEDEADYYCQSYDSSNWVFGGGTKLTVL
notes: full-length IgG
Kd [1]: 13.4 nM

B4: ADI-25576 (antibody, V domains shown)
VH: EVQLVESGGGLVQPGGSLRLSCAASGFTFSSYWMHWVRQAPGKGLVWVSRINSDGSSTSYADSVKGRFTISRDNAKNTLYLQMNSLRAEDTAVYYCARGLYNWNHDYWGQGTLVTVSS
VL: NFMLTQPHSVSESPGKTVTISCTRSSGSIASNYVQWYQQRPGSSPTTVIYEDNQRPSGVPDRFSGSIDSSSNSASLTISGLKTEDEADYYCQSYDSSNVVFGGGTKVTVL
notes: full-length IgG; also called Ab 460
Kd [1]: 23.9 nM

B5: ADI-41563 (antibody, V domains shown)
VH: QVQLVESGPGLVKPSETLSLTCTVSDDSITNNFWTWIRQPPGKGLEWIGYIYYSGSTNYNPSLKSRITMSVDLSKNQFSLKLSSVTAADTAVYYCARLTSGGVDYWGQGTLVTVSS
VL: QSVLTQPPSLSGAPGQRVTISCTGSSSNIGADYHVHWYQQLPGTAPKLLIYQNTNRPSGVPDRFSASKSGTSVSLAITGLQAEDEADYYCQSYDSSLSAWVFGGGTKLTVL
Neutralization - RSV A2 IC50 (pM) [3]: 139 pM | neut IC50 (ug/ml) subtype A (wright) [3]: 0.032 µg/mL

B6: ADI-24846 (antibody, V domains shown)
VH: EVQLLESGGGLVKPGGSLRLSCAASGFTFSSYSMNWVRQAPGKGLEWVSSISSSSSYIYYADSVKGRFTISRDNAKNSLYLQMNSLRAEDTAVYYCARDDGILWLDYWGQGTLVTVSS
VL: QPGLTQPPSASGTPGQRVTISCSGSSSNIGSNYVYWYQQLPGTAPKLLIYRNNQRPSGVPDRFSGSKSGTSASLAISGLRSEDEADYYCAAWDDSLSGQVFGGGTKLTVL
notes: full-length IgG
binding result [2]: no binding | Kd [1]: 29.1 nM

B7: ADI-19511 (antibody, V domains shown)
VH: QITLKESGPTLVKPTQTLTLTCTFSGFSLSTSGVGVGWIRQPPGKALEWLALIYWDDDKRYSPSLKSRLTITKDTSKNQVVLTMTNMDPVDTATYYCAHSVYYDFWSGYYVPNYFDYWGQGTLVTVSS
VL: DIQMTQSPSSLSASVGDRVTITCRASQGIRNDLGWYQQKPGKAPKRLIYAASSLQSGVPSRFSGSGSGTEFTLTISSLQPEDFATYYCLQHNSYPLTFGGGTKVEIK
notes: full-length IgG
binding result [2]: no binding | Kd [1]: 15.3 nM

B8: ADI-14369 (antibody, V domains shown)
VH: QVQLVQSGAEVKKPGSSVKVSCKASGGTFSSNAISWVRQAPGQGLEWMGGIIPIFATANYAQNFQDRVTITADESTGTAYMELSSLRYEDTAVYYCAKSAIHSGYHGPARSGFYQNGMDVWGQGTTVTVSS
VL: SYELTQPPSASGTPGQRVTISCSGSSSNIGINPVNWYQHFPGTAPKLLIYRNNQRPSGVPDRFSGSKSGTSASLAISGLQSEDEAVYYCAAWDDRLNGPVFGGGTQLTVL
notes: full-length IgG; also called Ab 37
Kd [4]: 3.38 nM | Kd [1]: 0.9 nM

B9: ADI-41232 (antibody, V domains shown)
VH: QVQLVQSGAEVKKPGASVKVSCKASGYTFTHYGISWVRQAPGQGLEWMAWISAYNGNTNYAQKLQDRVTVTTDTSTSTAYMELRSLRSDDTALYYCARDSMGGTTLFDYWGQGTLVTVSS
VL: DIVLTQTPLSLPVTLGQPASISCRSSQSLVYSDGNTYLNWFQQRPGQSPRRLIYKVSNRDSGVPDRFTGSGSGTDFTLKISRVEAEDVGVYYCMQGTHWPPMYTFGQGTKLEIK
Neutralization - RSV A2 IC50 (pM) [3]: 104 pM | neut IC50 (ug/ml) subtype A (wright) [3]: 0.025 µg/mL

B10: ADI-25573 (antibody, V domains shown)
VH: EVQLVESGAEVKKPGASVKVSCKASGYTFTSYYMHWVRQAPGQGLEWMGIINPSGGSTSYAQKFQGRVTMTRDTSTSTVYMELSSLRSEDTAVYYCARGPYDSSGYCDYWGQGTLVTVSS
VL: SYELMQPPSVSVAPGKTARITCGGNNIGSKSVHWYQQKPGQAPVLVVYDDSDRPSGTPERFSGSNSGNTATLTISRVEAGDEADYYCQVWDSSSDQVFGGGTKVTVL
notes: full-length IgG
binding result [2]: no binding | Kd [1]: 48.6 nM

B11: ADI-21062 (antibody, V domains shown)
VH: EVQLLESGGGLVKPGGSLRLSCAASGFTFSDYDMIWVRQAPGKGLEWVSSISRGSDYIYYADSLKGRFTISRDNARNSVTLQMNSLRAGDTALYFCARAELLDSGGYYLYYFDHWGQGTLVTVSS
VL: DIRMTQSPSSLSASVGDRVTITCRASQIIASYVNWYQKKPGKAPKVLIYAASRLQNGVPSRFSGSGSGTEFTLTISSLQPEDFATYYCQQSYSTSFTFGQGTKVDIK
notes: also called Ab 310
Kd [5]: 1.24 nM | Kd [6]: 0.827 nM | Kd [7]: 0.236 nM | Kd [8]: 0.417 nM

B12: ADI-36674 (antibody, V domains shown)
VH: EVQLLESGGGLVKPGGSLRLSCAASGFKFRSYSMNWVRQAPGKGLEWVSSISSSSSYVDYAGSLKGRFTISRDNAENSLYLQMNSLRAEDTAMYYCARAGSVPVAGTYNDYWGQGTLVTVSS
VL: QSVLTQPPSVSGAPGQRVTISCTGSSSNIGAGYDVHWYQHLPGTAPKLLIHGNNNRPAGVPDRFSGSKSGTSASLVITGLQADDEADYYCQSYDRSLSVLFGGGTKVTVL
Neutralization - RSV A2 IC50 (pM) [3]: 190 pM | neut IC50 (ug/ml) subtype A (wright) [3]: 0.014 µg/mL

B13: ADI-14356 (antibody, V domains shown)
VH: QVQLQESGAGLLKPSETLSLTCAVYGGSFSGYYWSWIRQPPGKGLEWIGEINHSGSTNYNPSLKSRVTISVDTSKNQFSLKLSSVTAADTAVYYCARDQRIVVVGAATEPYYYYYGMDVWGQGTTVTVSS
VL: QPVLTQPPSVSVSPGQTARITCSGDALPKQYAYWYQQKPGQAPVLVIYKDSERPSGIPERFSGSSSGTTVTLTISGVQAEDEADYYCQSADSSGTYRVFGGGTKLTVL
notes: full-length IgG; also called Ab 24
Kd [4]: 13 nM | Kd [1]: 4.98 nM

B14: ADI-19478 (antibody, V domains shown)
VH: QVQLVESGPGVVKPSETLSLTCTVSGGPVSSRSYYWGWIRQPPGKGLEWIGSIYYSGSTYYNTSLKSRVTISVDTSKNQFSLKLSSVTAADTAVYYCAKLQYSTSGFDYWGQGTLVTVSS
VL: QPVLTQPPSVSEAPRQRVTISCSGSSSNIGNNAVSWYQQLPGKAPKLLIYYDDLVPSGVSDRFSGSKSGTSASLAISGLQSEDEADYYCAAWDDSLNGVVFGGGTKLTVL
notes: full-length IgG; also called Ab 180
Kd [1]: 0.713 nM

B15: ADI-41222 (antibody, V domains shown)
VH: QVTLKESGGGVVQPGRSQRLSCTASGFNFHNYAMHWVRQAPGKGLEWVAVISYDGSNKNFADSVKGRFTISRDNSKNTLNLQMNNLRAEDTAVYYCVRDIVRGSPLFDYWGQGTLVTVSS
VL: QPVLTQPPSLSVAPGQTAWITCGGNNIGSKIVHWYQQKPGQAPVVVVYDDDDRPSGIPERFSGSNSGNTATLTIRRVEVGDEADYYCQVWDRSSDNYVFGTGTKVSVL
Neutralization - RSV A2 IC50 (pM) [3]: 39.9 pM | neut IC50 (ug/ml) subtype A (wright) [3]: 0.016 µg/mL

B16: ADI-36670 (antibody, V domains shown)
VH: QVQLVQSGAEVKKPGSSVKVSCKASGGTFSTYTINWVRQAPGQGLEWMGRITPSLGVPLSAQKFQGRITISADKSTTTAYMELSSLGSEDTAVYYCASLNYYDTTDYYLGYSDSWGQGTLVTVSS
VL: DIVLTQTPATLSVSPGERATLSCRASHSVSNNLAWYQQKPGQAPRLLIYSASTRATGIPARFSGRGSGTEFTLTISSLQPEDFAVYYCQQYNNWPPEYTFGQGTKVDIK
Neutralization - RSV A2 IC50 (pM) [3]: 141 pM | neut IC50 (ug/ml) subtype A (wright) [3]: 0.008 µg/mL

B17: ADI-41594 (antibody, V domains shown)
VH: EVQLVESGGGLVKPGGSLRLSCAASGFSFSSYYMNWVRQAPGKGLEWVSSISPSSSYTNYADSVKGRFTISRDNAKDSLYLQMNSLRAEDTAVYYCARDGLLGITIFGVVQDYWGQGTLVTVSS
VL: QSVVTQPPSVSGAPGQRVTISCTGSSSNIGAGYDVHWYQQLPGTAPKLLIYGNTNRPSGVPDRFSASKSGTSASLAITGLQAEDEADYYCQSYDSSLSVVFGGGTKLTVL
Neutralization - RSV A2 IC50 (pM) [3]: 208 pM | neut IC50 (ug/ml) subtype A (wright) [3]: 0.041 µg/mL

B18: ADI-22772 (antibody, V domains shown)
VH: EVQLVESGGGVVQPGRSLRLSCAASGFTFSSYAMHWVRQAPGKGLEWVAVISYDGSNKYYADSVKGRFTISRDNSKNTLYLQMNSLRAEDTAVYYCARAVEQQLFIWYYGMDVWGQGTTVTVSS
VL: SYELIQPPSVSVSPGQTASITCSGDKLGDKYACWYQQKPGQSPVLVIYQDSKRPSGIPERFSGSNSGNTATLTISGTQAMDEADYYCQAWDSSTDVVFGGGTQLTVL
notes: full-length IgG
binding result [2]: no binding | Kd [1]: 50.2 nM

B19: ADI-41249 (antibody, V domains shown)
VH: QVQLVQSGAEVKKPGESLKISCQVSRDTSTTYWIGWVRQMPGKGLEWMGIIFPGDSDTRYSPSFQGQVTISADKSIMTAYLQLTSLKASDTAMYYCATQALRGAFDIWGQGTMVTVSS
VL: DIRLTQSPSSLSASVGDRVTITCQASQDISNYLNWYQQKPGKAPKLLIYDASYLETGVPSRFSGSGSGTDFTFTISSLQPEDFATYYCQQYDDLLFTFGPGTKLEIK
Neutralization - RSV A2 IC50 (pM) [3]: 51.7 pM | neut IC50 (ug/ml) subtype A (wright) [3]: 0.006 µg/mL

B20: ADI-41344 (antibody, V domains shown)
VH: EVQLVESGGGLVKPGGSLRLSCAASGSSFSSYYMNWVRQAPGKGLEWVSSISSSSTYIDYADSVKGRFTISRDNAKNSLFLQMNSLRAEDTAVYYCARVSSPMIRGYYLDYWGQGTLVTVSS
VL: QPVLTQPPSVSGAPGQRVTISCTGSSSNIGAGYDVHWYQQLPGTAPKLVIHGNSNRPSGVPDRFSGSKSGTSASLAITGLQGEDEADYYCQSYDSSLSGSVFGGGTKLTVL
Neutralization - RSV A2 IC50 (pM) [3]: 229 pM | neut IC50 (ug/ml) subtype A (wright) [3]: 0.064 µg/mL
